Measurements published in FireProtDB.

B1: V92L, O26594 (parent)
chain: MRCAFMKKYILIVMLALMVAGCVSEDGNYTYNEGVQDSNVDNPVNDSWTSDSQDKVNDTAEKKSSYEASGSCYHVVDGDTIDVEGVGRIRLVGVNTPERGQPGYREAKDFVKSMCLGRTVQLDIDDAKRHDRYGRVLAVVYVDGVNLNRELLRRGYAEVMYIPPSEFNPYGWT
B2: Ribose import binding protein RbsB, P02925 (parent)
chain: MNMKKLATLVSAVALSATVSANAMAKDTIALVVSTLNNPFFVSLKDGAQKEADKLGYNLVVLDSQNNPAKELANVQDLTVRGTKILLINPTDSDAVGNAVKMANQANIPVITLDRQATKGEVVSHIASDNVLGGKIAGDYIAKKAGEGAKVIELQGIAGTSAARERGEGFQQAVAAHKFNVLASQPADFDRIKGLNVMQNLLTAHPDVQAVFAQNDEMALGALRALQTAGKSDVMVVGFDGTPDGEKAVNDGKLAATIAQLPDQIGAKGVETADKVLKGEKVQAKYPVDLKLVVKQ
B3: Phosphocarrier protein HPr, P42013 (parent)
chain: MAEKTFKVVSDSGIHARPATILVQTASKFNSEIQLEYNGKTVNLKSIMGVMSLGIPKGATIKITAEGADAAEAMAALTDTLAKEGLAE
B4: Tissue factor, P13726 (parent)
chain: METPAWPRVPRPETAVARTLLLGWVFAQVAGASGTTNTVAAYNLTWKSTNFKTILEWEPKPVNQVYTVQISTKSGDWKSKCFYTTDTECDLTDEIVKDVKQTYLARVFSYPAGNVESTGSAGEPLYENSPEFTPYLETNLGQPTIQSFEQVGTKVNVTVEDERTLVRRNNTFLSLRDVFGKDLIYTLYYWKSSSSGKKTAKTNTNEFLIDVDKGENYCFSVQAVIPSRTVNRKSTDSPVECMGQEKGEFREIFYIIGAVVFVVIILVIILAISLHKCRKAGVGQSWKENSPLNVS
B5: Endo-1,4-beta-xylanase 2, P36217 (parent)
chain: MVSFTSLLAGVAAISGVLAAPAAEVESVAVEKRQTIQPGTGYNNGYFYSYWNDGHGGVTYTNGPGGQFSVNWSNSGNFVGGKGWQPGTKNKVINFSGSYNPNGNSYLSVYGWSRNPLIEYYIVENFGTYNPSTGATKLGEVTSDGSVYDIYRTQRVNQPSIIGTATFYQYWSVRRNHRSSGSVNTANHFNAWAQQGLTLGTMDYQIVAVEGYFSSGSASITVS
B6: Ribonuclease, P00648 (parent)
chain: MMKMEGIALKKRLSWISVCLLVLVSAAGMLFSTAAKTETSSHKAHTEAQVINTFDGVADYLQTYHKLPDNYITKSEAQALGWVASKGNLADVAPGKSIGGDIFSNREGKLPGKSGRTWREADINYTSGFRNSDRILYSSDWLIYKTTDHYQTFTKIR

Variants of: B1
Details: Methanothermobacter thermautotrophicus (strain ATCC 29096 / DSM 1053 / JCM 10044 / NBRC 100330 / Delta H); pH 7; 20 °C; GdnHCl; Fluorescence; Sodium phosphate sodium chloride 25 mM 100 mM; whole UniProt chain shown

Row | Variant | ddG of mutation (higher = less stable) [kcal/mol] | denaturant m value [kcal/mol/M] | denaturant midpoint (higher = more stable) [M] | unfolding free energy [kcal/mol]
1 | V92L | 1.1 | 1.03 | 0.2 | 1.3

Variants of: B2
Details: Escherichia coli (strain K12); pH 7.7; 25 °C; GdnHCl; Fluorescence; HEPES 10 mM; reversible: yes; structure 2DRI; whole UniProt chain shown

Row | Variant | unfolding free energy [kcal/mol]
2 | A52T | 1.8

Variants of: B3
Details: Geobacillus stearothermophilus; pH 7; 25 °C; Urea; CD; sodium phosphate 10 mM; reversible: yes; structure 1Y4Y; whole UniProt chain shown

Row | Variant | ddG of mutation (higher = less stable) [kcal/mol] | denaturant m value [kcal/mol/M] | unfolding free energy [kcal/mol]
3 | F29W | 0.86 | 1.06 | 7.37

Same assay, conditions: Geobacillus stearothermophilus; pH 7; Thermal; CD; sodium phosphate 10 mM; NaCl 750 mM; reversible: yes; structure 1Y4Y; whole UniProt chain shown

Row | Variant | Tm [°C]
4 | F29W | 85.3

Same assay, conditions: Geobacillus stearothermophilus; pH 7; Thermal; CD; sodium phosphate 10 mM; reversible: yes; structure 1Y4Y; whole UniProt chain shown

Row | Variant | Tm [°C] | change of melting temperature, mutant - wild type (higher = more stable) [°C]
5 | F29W | 83.7 | -4.4

Variants of: B4
Details: Homo sapiens; pH 7.5; 23 °C; GdnHCl; Fluorescence; Tris-HCl 50 mM; reversible: yes; structure 1BOY; whole UniProt chain shown

Row | Variant | ddG of mutation (higher = less stable) [kcal/mol] | denaturant midpoint (higher = more stable) [M] | unfolding free energy [kcal/mol]
6 | R232W | -0.6 | 1.37 | 6.9

Variants of: B5
Details: Hypocrea jecorina (strain ATCC 56765 / BCRC 32924 / NRRL 11460 / Rut C-30); pH 5; Thermal; DSC; citrate - phosphate buffer 50 mM; structure 1ENX; whole UniProt chain shown

Row | Variant | Tm [°C] | change of melting temperature, mutant - wild type (higher = more stable) [°C]
7 | T35C T61C K91R | 72.5 | 11.1

Variants of: B6
Details: Bacillus amyloliquefaciens; pH 6.15; 25 °C; Urea; Fluorescence; MES 19.3 mM; reversible: yes; structure 1BNI; whole UniProt chain shown

Row | Variant | ddG of mutation (higher = less stable) [kcal/mol] | denaturant midpoint (higher = more stable) [M] | unfolding free energy [kcal/mol]
8 | F54L | 4.1 | 2.42 | 6.4

Same assay, conditions: Bacillus amyloliquefaciens; pH 6.3; 25 °C; Urea; Fluorescence; MES 50 mM; reversible: yes; structure 1BNI; whole UniProt chain shown

Row | Variant | ddG of mutation (higher = less stable) [kcal/mol]
9 | I135A | 4.46
10 | I143V | 0.98
11 | I143A | 3.52
12 | H65Q | 1.6

Same assay, conditions: Bacillus amyloliquefaciens; pH 6.3; 25 °C; Urea; Fluorescence; MES 19.3 mM; reversible: yes; structure 1BNI; whole UniProt chain shown

Row | Variant | ddG of mutation (higher = less stable) [kcal/mol] | denaturant midpoint (higher = more stable) [M] | unfolding free energy [kcal/mol]
13 | I143A | 4 | 2.24 | 6.5

Same assay, conditions: Bacillus amyloliquefaciens; pH 6.3; 25 °C; Urea; Fluorescence; MES 1 M; structure 1BNI; whole UniProt chain shown

Row | Variant | ddG of mutation (higher = less stable) [kcal/mol] | unfolding free energy [kcal/mol]
14 | H65G | 0.89 | 8.01
15 | H65A | 2.15 | 6.75
16 | A79G | 0.91 | 7.99

Same assay, conditions: Bacillus amyloliquefaciens; pH 6.3; 25 °C; Urea; Fluorescence; MES 10 mM; reversible: yes; structure 1BNI; whole UniProt chain shown

Row | Variant | ddG of mutation (higher = less stable) [kcal/mol] | denaturant m value [kcal/mol/M] | denaturant midpoint (higher = more stable) [M] | unfolding free energy [kcal/mol]
17 | S75E | -0.61 | 1.99 | 4.74 | 9.44

Same assay, conditions: Bacillus amyloliquefaciens; pH 6.3; 25 °C; Urea; Fluorescence; MES 1.00 M; NaCl 613 mM; reversible: yes; structure 1BNI; whole UniProt chain shown

Row | Variant | ddG of mutation (higher = less stable) [kcal/mol]
18 | Y64A | 2.26
19 | Y60A | 3.71
20 | T63S Y64A | 2.39
21 | Y60A Y64A | 4.64

Same assay, conditions: Bacillus amyloliquefaciens; pH 6.3; 25 °C; Urea; Fluorescence; MES 50 mM; structure 1BNI; whole UniProt chain shown

Row | Variant | ddG of mutation (higher = less stable) [kcal/mol]
22 | E120Q | 2.7
23 | E120W | 2.2
24 | E120F | 2.1

Same assay, conditions: Bacillus amyloliquefaciens; pH 6.3; 25 °C; Thermal; Fluorescence; MES 50 mM; structure 1BNI; whole UniProt chain shown

Row | Variant | ddG of mutation (higher = less stable) [kcal/mol] | unfolding free energy [kcal/mol]
25 | D122N | 5 | 5.2

Same assay, conditions: Bacillus amyloliquefaciens; pH 2.7; Thermal; DSC; glycine-HCl 20 mM; reversible: yes; structure 1BNI; whole UniProt chain shown

Row | Variant | Tm [°C]
26 | S132C H149C | 47.4

Same assay, conditions: Bacillus amyloliquefaciens; pH 2.7; Thermal; CD; glycine-HCl 20 mM; KCl 200 mM; reversible: yes; structure 1BNI; whole UniProt chain shown

Row | Variant | Tm [°C]
27 | I51A I98V | 25.7

Same assay, conditions: Bacillus amyloliquefaciens; pH 2.7; Thermal; DSC; glycine-HCl 20 mM; KCl 200 mM; reversible: yes; structure 1BNI; whole UniProt chain shown

Row | Variant | Tm [°C]
28 | I51A I98V | 25.4
